Assay results: PMC12170172, “Initiation of ERAD by the bifunctional complex of Mnl1/Htm1 mannosidase and protein disulfide isomerase” (Nature Structural & Molecular Biology, 2025)
Where a chain is given by its changes, count along the chain named.

Experiments:
Settings in all cases: both partners purified
[1] = target: T1, Mnl1 (C579S)–FLAG (S. cerevisiae, UniProt P38888 21-796, C579S); assay: cross-linking; purified complexes of Pdi1 with wild-type or mutant Mnl1 incubated with increasing concentrations of DPS (2,2′-dipyridyldisulfide) to induce disulfides; non-reducing SDS-PAGE, Coomassie blue
T1 construct: Mnl1 (Htm1) of S. cerevisiae with a substituted loop cysteine; source: S. cerevisiae, overexpressed together with Pdi1, purified as a complex (anti-FLAG M2 resin, Superdex 200); not shown: FLAG, C-terminal, kept
T1 sequence (looked up): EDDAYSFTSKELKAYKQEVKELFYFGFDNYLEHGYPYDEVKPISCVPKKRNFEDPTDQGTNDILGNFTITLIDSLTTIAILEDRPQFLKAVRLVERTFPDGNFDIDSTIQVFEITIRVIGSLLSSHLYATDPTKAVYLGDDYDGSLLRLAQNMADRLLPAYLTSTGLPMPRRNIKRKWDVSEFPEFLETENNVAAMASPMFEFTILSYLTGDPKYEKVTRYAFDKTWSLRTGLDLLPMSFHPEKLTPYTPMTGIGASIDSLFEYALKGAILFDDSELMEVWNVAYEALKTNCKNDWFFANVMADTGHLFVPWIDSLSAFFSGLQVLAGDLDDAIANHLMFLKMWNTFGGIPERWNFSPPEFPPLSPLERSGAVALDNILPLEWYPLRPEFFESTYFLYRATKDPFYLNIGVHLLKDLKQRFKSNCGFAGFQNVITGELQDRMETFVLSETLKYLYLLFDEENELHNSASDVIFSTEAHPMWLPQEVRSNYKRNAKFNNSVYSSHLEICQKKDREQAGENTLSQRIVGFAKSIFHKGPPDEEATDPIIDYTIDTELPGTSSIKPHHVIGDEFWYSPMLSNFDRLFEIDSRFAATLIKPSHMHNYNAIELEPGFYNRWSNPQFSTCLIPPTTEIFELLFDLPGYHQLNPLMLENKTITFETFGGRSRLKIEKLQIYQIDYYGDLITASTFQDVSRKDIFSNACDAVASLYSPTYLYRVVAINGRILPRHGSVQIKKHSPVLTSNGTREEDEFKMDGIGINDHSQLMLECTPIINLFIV

[2] = target: T2, Mnl1 (C644S)–FLAG (S. cerevisiae, UniProt P38888 21-796, C644S); assay: as above
T2 construct: Mnl1 (Htm1) of S. cerevisiae with a substituted loop cysteine; source: S. cerevisiae, overexpressed together with Pdi1, purified as a complex (anti-FLAG M2 resin, Superdex 200); not shown: FLAG, C-terminal, kept
T2 sequence (looked up): T1 sequence (looked up) with S559C, C624S

[3] = target: T3, Mnl1 mCTD–FLAG (S. cerevisiae, UniProt P38888 21-796, L655N | F770Y | M772K); assay: cross-linking; competition: RBΔS, RBun or RBsc incubated with Mnl1–Pdi1 complex at the indicated molar ratios (tenfold excess in Fig. 6) in 25 mM HEPES pH 7.4, 150 mM NaCl, 0.1% Nonidet P-40, 2 mM CaCl2, 30 °C 30 min; then DPS 30 °C 30 min, N-ethylmaleimide; SDS-PAGE, Coomassie blue
T3 construct: Mnl1 (Htm1) of S. cerevisiae with three hydrophobic residues of the CTD groove changed to hydrophilic ones; source: S. cerevisiae, overexpressed together with Pdi1, purified as a complex (anti-FLAG M2 resin, Superdex 200); not shown: FLAG, C-terminal, kept
T3 sequence (looked up): T1 sequence (looked up) with S559C, L635N, F750Y, M752K

Measured: binding result

B1: Pdi1 (protein disulfide isomerase) (enzyme, S. cerevisiae, UniProt P17967 29-522, looked up)
chain: PEDSAVVKLATDSFNEYIQSHDLVLAEFFAPWCGHCKNMAPEYVKAAETLVEKNITLAQIDCTENQDLCMEHNIPGFPSLKIFKNSDVNNSIDYEGPRTAEAIVQFMIKQSQPAVAVVADLPAYLANETFVTPVIVQSGKIDADFNATFYSMANKHFNDYDFVSAENADDDFKLSIYLPSAMDEPVVYNGKKADIADADVFEKWLQVEALPYFGEIDGSVFAQYVESGLPLGYLFYNDEEELEEYKPLFTELAKKNRGLMNFVSIDARKFGRHAGNLNMKEQFPLFAIHDMTEDLKYGLPQLSEEAFDELSDKIVLESKAIESLVKDFLKGDASPIVKSQEIFENQDSSVFQLVGKNHDEIVNDPKKDVLVLYYAPWCGHCKRLAPTYQELADTYANATSDVLIAKLDHTENDVRGVVIEGYPTIVLYPGGKKSESVVYQGSRSLDSLFDFIKENGHFDVDGKALYEEAQEKAAEEADADAELADEEDAIHDEL
notes: Pdi1, protein disulfide isomerase of S. cerevisiae, untagged; Trx domains a, b, b′ and a′; amino acids 24–500 could be modelled; source: S. cerevisiae, overexpressed together with Mnl1–FLAG (GAL1 promoter), purified as a complex
binds: all assays above
